The record followed here is patent US20260216362A1, “ANTI-BDCA2 ANTIBODY-DRUG CONJUGATE AND USE THEREOF” (DUALITY BIOLOGICS (SHANGHAI) CO., LTD., priority 2022, published 2026).

In one assay the target is T1, recombinant Human BDCA2 (Homo sapiens, UniProt Q8WTT0).
T1 construct: extracellular domain (Asn45-Ile213) of human BDCA2 (hBDCA2); human IgG1 Fc (fused via a linker) (N); made in house; host or cells: 293E
T1 sequence (Q8WTT0 45-213): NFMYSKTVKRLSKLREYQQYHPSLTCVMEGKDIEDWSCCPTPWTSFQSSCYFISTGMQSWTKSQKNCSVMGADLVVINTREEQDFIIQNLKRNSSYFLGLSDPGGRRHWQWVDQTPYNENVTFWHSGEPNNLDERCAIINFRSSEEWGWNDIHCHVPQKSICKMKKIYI
The assay is described as follows: Affinity assay of humanized antibodies by BIAcore (SPR). To be noted: 1:1 binding model. As for the experimental part:
The humanized antibodies of the present disclosure were assayed for affinity by the BIAcore experiment. The surface of a CM5 chip channel was activated with 50 mM NHS and 200 mM EDC (NHS and EDC from an amino coupling kit) mixed in a ratio of 1:1, and the anti-human IgG (Fc) antibody (diluted with a sodium acetate solution at pH 5.0, the concentration was 25 μg/mL) was injected for 420 s. Then 1 M ethanolamine was injected at a flow rate of 10 μL/min for 420 s to block excess active carboxyl groups on the chip. The humanized antibody was diluted to 1 μg/mL using a running buffer and injected into a detection channel flow cell at a flow rate of 10 μL/min. The sample injection was performed for 60 s for capture. The recombinant Human BDCA2 was diluted to 50 nM or 100 nM with 1× HBS-EP+ (pH 7.4), and diluted in a gradient of 1:2 to 0.39 nM. The test samples hBDCA2 at these concentration gradients were separately injected into the detection channel at a flow rate of 30 μL/min, wherein 2 samples at the concentration of 0 were used for removing background signals. The times for the antibody-antigen binding and dissociation were 180 s and 400 s, respectively. […] After subtraction of the signals from the reference channel (flow cell 1) and 0 concentration, a 1:1 binding model was selected for curve fitting, and kinetic parameters calculated.
For orientation: Surface plasmon resonance follows binding to a sensor surface in real time, without labels.

The subject of assay [1] is cynomolgus monkey whole blood stimulated with CpG-A. The experiment in a line: IFN-α after in vitro CpG-A stimulation of whole blood of dosed cynomolgus monkeys. It is filed as in vivo. Conditions: 10 mg/kg i.v.; CpGA-stimulated whole blood. As for the experimental part:
(§1) Cytokine expression was detected by whole blood stimulation in vitro.
(§2) The cells were cultured at 37° C. for 18 h, and the supernatant was collected. The TNF-α and IFN-α concentration levels in the supernatant were detected using an ELISA kit.
(§3) IFN-α concentration assay was performed using a Mabtech Human IFN-α (pan specific) ELISA kit (Cat. No. 3425-1H-20). 50 μL of serially diluted cytokine standard was added to each standard well, 50 μL of test sample was added to each sample well, and 50 μL of PBS was added to each blank control well. The cells were incubated at 37° C. for 2 h. The plate was washed 3 times, the liquid in each well was removed, and 300 µL of 1× PBST buffer working solution was added to each well; and after 1 minute of residence, the liquid in each well was discarded. 100 μL of detection antibody working solution was added to each well, and the cells were incubated at 37° C. for 1 h. […] The reading at wavelength 450 nm was detected using a Molecular device spectra max plus384 instrument within 10 min after the reaction was stopped.
(§4) Evaluation criteria in FIGS. 12-13: the average expression level changes of IFNα/TNFα were evaluated after in vitro stimulation of the whole blood with CpGA at 200 μg/mL on days 0-33 after administration. […]

For assay [2] the test system is unchanged. The experiment in a line: TNF-α after in vitro CpG-A stimulation of whole blood of dosed cynomolgus monkeys. It is filed as in vivo. Conditions: 10 mg/kg i.v.; CpGA-stimulated whole blood. As for the experimental part: as §1, §2
as §3, with “TNF-α” for “IFN-α”, “R&D Primate TNF-α DuoSet” for “Mabtech Human IFN-α (pan specific)”, “DY1070).” for “3425-1H-20).”, “times:” for “times,”, “μL” for “µL”
as §4

Take “BIIB059: reference antibody specifically binding to BDCA2, sequence derived from U.S. Pat. No. 9,902,775B2; SEQ ID NO: 25 and 26 [reference compound]”: in the assay with recombinant Human BDCA2, the ka is 167000 M⁻¹ s⁻¹ and the kd was 0.000179 s⁻¹. Also, in assay [1], the “IFN-α expression level compared to the blank control group” value is listed as “reduced”. In assay [2], the “TNFα expression level compared to the blank control group” value was “no significant change”.
